# Article PMC12316734, “Lipase Activation by Poly(Methyl Methacrylate) in Dispersed Solution: Mechanistic Insights by Fluorescence Spectroscopy” (Applied Biochemistry and Biotechnology, 2025)
# B1: Thermomyces lanuginosus lipase (TLL) (Thermomyces lanuginosus) (protein)
# chain: EVSQDLFNQFNLFAQYSAAAYCGKNNDAPAGTNITCTGNACPEVEKADATFLYSFEDSGVGDVTGFLALDNTNKLIVLSFRGSRSIENWIGNLNFDLKEINDICSGCRGHDGFTSSWRSVADTLRQKVEDAVREHPDYRVVFTGHSLGGALATVAGADLRGNGYDIDVFSYGAPRVGNRAFAEFLTVQTGGTLYRITHTNDIVPRLPPREFGYSHSSPEYWIKSGTLVPVTRNDIVKIEGIDATGGNNQPNIPDIPAHLWYFGLIGTCL
# notes: commercial lipase (gift of ASA Spezialenzyme), desalted; predominantly dimer in FCS
# B2: Bacillus subtilis lipase A (BSLA WT) (Bacillus subtilis subsp. subtilis str. 168) (protein)
# chain: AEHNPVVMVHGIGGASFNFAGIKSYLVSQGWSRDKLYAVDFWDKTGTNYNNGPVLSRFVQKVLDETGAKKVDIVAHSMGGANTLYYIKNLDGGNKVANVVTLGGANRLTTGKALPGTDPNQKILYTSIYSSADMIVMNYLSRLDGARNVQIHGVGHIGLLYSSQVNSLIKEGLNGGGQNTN
# B3: Candida antarctica lipase B (CalB) (Moesziomyces antarcticus) (protein)
# chain: LPSGSDPAFSQPKSVLDAGLTCQGASPSSVSKPILLVPGTGTTGPQSFDSNWIPLSTQLGYTPCWISPPPFMLNDTQVNTEYMVNAITALYAGSGNNKLPVLTWSQGGLVAQWGLTFFPSIRSKVDRLMAFAPDYKGTVLAGPLDALAVSAPSVWQQTTGSALTTALRNAGGLTQIVPTTNLYSATDEIVQPQVSNSPLDSSYLFNGKNVQAQAVCGPLFVIDHAGSLTSQFSYVVGRSALRSTTGQARSADYGITDCNPLPANDLTPEQKVAAAALLAPAAAAIVAGPKQNCEPDLMPYARPFAVGKRTCSGIVTP
# notes: commercial lipase B (Strem Chemicals), free enzyme in solution
# Tests used:
# Experiment in all cases: fluorogenic hydrolysis assay, Michaelis-Menten fit
# Details in all cases: pH 7, 20 °C, no PMMA, 2% DMSO, 500 nM enzyme
# [1] = substrate: CCCC(=O)Oc1ccc2c(C)cc(=O)oc2c1; type: biochemical, Thermomyces lanuginosus
# Source text: fluorogenic hydrolysis assay, Michaelis-Menten fit on Thermomyces lanuginosus lipase (TLL)
# [2] = substrate: CCCC(=O)Oc1ccc2c(C)cc(=O)oc2c1; type: biochemical, Bacillus subtilis
# Source text: fluorogenic hydrolysis assay, Michaelis-Menten fit on Bacillus subtilis lipase A (BSLA WT)
# [3] = substrate: CCCC(=O)Oc1ccc2c(C)cc(=O)oc2c1; type: biochemical, Moesziomyces antarcticus
# Source text: fluorogenic hydrolysis assay, Michaelis-Menten fit on Candida antarctica lipase B (CalB)
protein,measurement,setting,value
B1,Km,[1],20.8 ± 1.67 µM
same,Vmax,[1],4.16 µM/min
same,Vmax/Km,[1],0.2 min⁻¹
B2,Km,[2],39.2 ± 3.61 µM
same,Vmax,[2],97.7 µM/min
same,Vmax/Km,[2],2.49 min⁻¹
B3,Km,[3],26.6 ± 1.77 µM
same,Vmax,[3],5.43 µM/min
same,Vmax/Km,[3],0.2 min⁻¹
